Earlier results in article PMC2628467.

Target: RNase H folding intermediate mimic (Escherichia coli) (UniProt P0A7Y4)

- Kd: 500 nM
Substance: RNase H folding intermediate mimic (from UniProt P0A7Y4)
